Patent publication US20260226133A1 (ANGELES THERAPEUTICS, published 2026)
Where a chain is given by its changes, count along the chain named. Names may count otherwise.

Legend:
[1] = target: T1, TAJ/TNFRSF19 (UniProt Q9NS68 30-423, limits assumed); assay: Malibu-Glo assay; NLuc fusion supernatant on LNCaP cells, control 293FT cells
T1 construct: whole, on cells
T1 sequence (looked up): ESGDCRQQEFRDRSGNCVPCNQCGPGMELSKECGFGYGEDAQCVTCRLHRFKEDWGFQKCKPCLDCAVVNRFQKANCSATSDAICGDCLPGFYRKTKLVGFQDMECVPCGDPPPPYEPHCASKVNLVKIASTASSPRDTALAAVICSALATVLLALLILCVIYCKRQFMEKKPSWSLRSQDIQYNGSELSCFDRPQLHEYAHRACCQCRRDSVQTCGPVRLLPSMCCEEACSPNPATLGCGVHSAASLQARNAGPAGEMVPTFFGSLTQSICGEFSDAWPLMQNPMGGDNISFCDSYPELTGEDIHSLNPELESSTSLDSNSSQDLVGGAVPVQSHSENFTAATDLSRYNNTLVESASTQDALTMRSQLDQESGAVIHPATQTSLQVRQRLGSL

[2] = target: T2, CD19 (UniProt P15391 20-556, limits assumed); assay: Malibu-Glo assay; NLuc fusion supernatant on RAJI cells, control Jurkat cells
T2 construct: whole, on cells
T2 sequence (looked up): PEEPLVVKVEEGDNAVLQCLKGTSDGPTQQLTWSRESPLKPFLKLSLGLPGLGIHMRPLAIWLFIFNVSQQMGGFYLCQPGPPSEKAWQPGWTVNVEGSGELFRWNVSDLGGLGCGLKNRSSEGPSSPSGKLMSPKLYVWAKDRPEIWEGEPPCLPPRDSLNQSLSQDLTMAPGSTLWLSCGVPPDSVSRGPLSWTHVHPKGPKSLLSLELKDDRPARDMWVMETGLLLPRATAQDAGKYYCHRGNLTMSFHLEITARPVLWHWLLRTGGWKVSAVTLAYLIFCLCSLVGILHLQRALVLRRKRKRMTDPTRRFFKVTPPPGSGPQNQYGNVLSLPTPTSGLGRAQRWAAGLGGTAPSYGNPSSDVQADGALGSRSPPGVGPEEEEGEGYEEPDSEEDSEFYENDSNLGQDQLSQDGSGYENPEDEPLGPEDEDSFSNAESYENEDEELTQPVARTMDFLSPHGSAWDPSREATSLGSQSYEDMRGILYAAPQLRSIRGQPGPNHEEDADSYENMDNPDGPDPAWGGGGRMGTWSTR

[3] = target: T3, CD33 (UniProt P20138 18-364, limits assumed); assay: Malibu-Glo assay; NLuc fusion supernatant on HL60 cells, control Jurkat cells
T3 construct: whole, on cells
T3 sequence (P20138 18-364 limits assumed): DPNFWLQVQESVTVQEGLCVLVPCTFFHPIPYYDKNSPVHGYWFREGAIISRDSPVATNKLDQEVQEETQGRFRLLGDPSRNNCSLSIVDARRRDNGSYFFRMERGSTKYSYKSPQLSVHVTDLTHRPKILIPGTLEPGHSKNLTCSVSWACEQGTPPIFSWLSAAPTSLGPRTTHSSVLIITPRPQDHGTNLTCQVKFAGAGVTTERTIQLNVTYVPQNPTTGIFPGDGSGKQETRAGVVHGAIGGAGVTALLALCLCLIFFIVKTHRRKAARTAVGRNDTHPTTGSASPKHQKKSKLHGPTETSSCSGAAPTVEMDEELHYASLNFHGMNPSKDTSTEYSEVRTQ

[4] = target: T4, BCMA (UniProt Q02223 1-184, limits assumed); assay: Malibu-Glo assay; NLuc fusion supernatant on L363 cells, control Jurkat cells
T4 construct: whole, on cells; also called TNF receptor family member B cell maturation (BCMA)
T4 sequence (looked up): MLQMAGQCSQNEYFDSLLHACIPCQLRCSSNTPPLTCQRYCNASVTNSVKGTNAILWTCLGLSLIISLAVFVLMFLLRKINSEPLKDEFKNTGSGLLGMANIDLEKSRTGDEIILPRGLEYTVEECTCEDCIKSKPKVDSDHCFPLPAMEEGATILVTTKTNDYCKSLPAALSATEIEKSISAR

[5] = target: T5, DLL3 (UniProt Q9NYJ7 27-618, limits assumed); assay: Malibu-Glo assay; NLuc fusion supernatant on NCI-H82 cells, control K562 cells
T5 construct: whole, on cells
T5 sequence (looked up): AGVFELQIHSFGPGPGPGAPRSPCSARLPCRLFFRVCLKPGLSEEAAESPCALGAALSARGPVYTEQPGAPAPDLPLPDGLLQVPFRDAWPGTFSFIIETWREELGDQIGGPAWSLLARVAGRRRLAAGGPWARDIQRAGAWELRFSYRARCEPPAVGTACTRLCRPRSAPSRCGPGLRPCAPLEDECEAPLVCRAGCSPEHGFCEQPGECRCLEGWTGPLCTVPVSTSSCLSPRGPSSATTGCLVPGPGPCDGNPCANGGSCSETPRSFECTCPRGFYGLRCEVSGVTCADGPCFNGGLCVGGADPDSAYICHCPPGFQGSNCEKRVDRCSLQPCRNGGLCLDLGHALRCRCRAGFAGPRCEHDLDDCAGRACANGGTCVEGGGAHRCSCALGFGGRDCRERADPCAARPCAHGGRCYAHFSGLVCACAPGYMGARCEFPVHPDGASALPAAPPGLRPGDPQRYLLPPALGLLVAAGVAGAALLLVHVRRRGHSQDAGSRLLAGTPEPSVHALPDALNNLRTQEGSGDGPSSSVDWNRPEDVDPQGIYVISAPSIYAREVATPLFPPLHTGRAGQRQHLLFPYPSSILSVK

[6] = target: T6, STEAP2 (UniProt Q8NFT2 1-490, limits assumed); assay: Malibu-Glo assay; NLuc fusion supernatant on LNCaP cells, control K562 cells
T6 construct: whole, on cells
T6 sequence (looked up): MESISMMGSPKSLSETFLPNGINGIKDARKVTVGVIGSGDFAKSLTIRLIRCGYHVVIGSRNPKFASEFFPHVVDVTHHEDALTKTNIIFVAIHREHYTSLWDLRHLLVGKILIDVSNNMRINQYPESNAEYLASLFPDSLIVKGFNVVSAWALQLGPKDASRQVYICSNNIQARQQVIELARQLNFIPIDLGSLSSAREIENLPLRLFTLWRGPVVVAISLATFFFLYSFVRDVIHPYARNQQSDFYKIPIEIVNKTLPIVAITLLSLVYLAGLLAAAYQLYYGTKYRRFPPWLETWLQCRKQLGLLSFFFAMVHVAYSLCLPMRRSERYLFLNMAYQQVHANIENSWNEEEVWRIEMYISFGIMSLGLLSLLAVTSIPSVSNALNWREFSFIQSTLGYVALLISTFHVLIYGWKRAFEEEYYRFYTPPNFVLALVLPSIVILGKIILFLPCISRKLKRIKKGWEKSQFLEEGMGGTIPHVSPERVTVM

[7] = target: T7, IL23R (UniProt Q5VWK5 24-629, limits assumed); assay: Malibu-Glo assay; NLuc fusion supernatant on L363 cells, control K562 cells
T7 construct: whole, on cells
T7 sequence (looked up): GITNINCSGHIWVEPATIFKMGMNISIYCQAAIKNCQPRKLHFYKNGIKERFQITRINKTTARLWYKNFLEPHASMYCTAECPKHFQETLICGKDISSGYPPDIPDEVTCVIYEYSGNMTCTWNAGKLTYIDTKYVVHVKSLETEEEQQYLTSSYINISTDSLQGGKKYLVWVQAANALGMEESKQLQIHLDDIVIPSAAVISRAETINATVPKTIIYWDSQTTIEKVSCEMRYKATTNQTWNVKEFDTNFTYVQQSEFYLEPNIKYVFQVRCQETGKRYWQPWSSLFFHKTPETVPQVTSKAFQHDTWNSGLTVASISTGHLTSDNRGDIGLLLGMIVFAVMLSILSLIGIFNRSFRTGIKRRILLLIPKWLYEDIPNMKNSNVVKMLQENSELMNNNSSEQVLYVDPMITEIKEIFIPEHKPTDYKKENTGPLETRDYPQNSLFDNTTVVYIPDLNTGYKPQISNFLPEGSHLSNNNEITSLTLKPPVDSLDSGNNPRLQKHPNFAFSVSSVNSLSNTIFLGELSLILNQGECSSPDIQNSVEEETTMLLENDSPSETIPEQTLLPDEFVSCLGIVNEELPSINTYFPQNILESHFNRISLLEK

[8] = target: T4, BCMA; assay: Malibu-Glo assay; NLuc fusion supernatant on H929 cells, control K562 cells
[9] = target: T8, CD20 (UniProt P11836 1-297, limits assumed); assay: Malibu-Glo assay; NLuc fusion supernatant on RAJI cells, control K562 cells
T8 construct: whole, on cells
T8 sequence (looked up): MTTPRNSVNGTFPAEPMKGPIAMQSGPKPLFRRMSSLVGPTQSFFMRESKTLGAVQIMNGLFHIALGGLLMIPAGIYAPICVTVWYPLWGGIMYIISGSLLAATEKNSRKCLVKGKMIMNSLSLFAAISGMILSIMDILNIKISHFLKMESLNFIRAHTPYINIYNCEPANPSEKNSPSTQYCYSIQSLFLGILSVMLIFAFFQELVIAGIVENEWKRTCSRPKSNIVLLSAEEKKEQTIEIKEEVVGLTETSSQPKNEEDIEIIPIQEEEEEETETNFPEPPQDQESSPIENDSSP

[10] = target: T9, MSLN (UniProt Q13421 37-598, limits assumed); assay: Malibu-Glo assay; NLuc fusion supernatant on SKOV3 cells, control Jurkat cells
T9 construct: whole, on cells; also called Mesothelin
T9 sequence (Q13421 other isoform, or with tags, fused parts or gaps limits assumed): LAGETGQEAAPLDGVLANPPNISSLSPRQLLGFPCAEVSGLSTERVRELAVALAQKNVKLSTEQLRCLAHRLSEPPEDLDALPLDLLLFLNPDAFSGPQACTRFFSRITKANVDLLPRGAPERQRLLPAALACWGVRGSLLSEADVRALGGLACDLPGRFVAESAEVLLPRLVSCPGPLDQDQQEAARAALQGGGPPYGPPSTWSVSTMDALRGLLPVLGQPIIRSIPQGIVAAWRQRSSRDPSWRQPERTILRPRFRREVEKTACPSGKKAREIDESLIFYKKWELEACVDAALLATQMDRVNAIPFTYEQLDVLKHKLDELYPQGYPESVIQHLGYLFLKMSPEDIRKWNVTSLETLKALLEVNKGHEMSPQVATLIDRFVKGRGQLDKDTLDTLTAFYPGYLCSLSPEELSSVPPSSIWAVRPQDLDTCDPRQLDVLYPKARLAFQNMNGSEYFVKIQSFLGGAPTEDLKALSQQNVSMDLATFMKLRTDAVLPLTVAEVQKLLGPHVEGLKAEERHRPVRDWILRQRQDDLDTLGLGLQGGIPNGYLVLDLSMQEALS

B1: KN5-USC1-R3D scFv (TAJ), NLuc fusion (scFv)
chain: QIVLTQSPAIMSASPGEKVTMTCSASSSVSFMHWYQQKSGTSPKRWIYDTSTLASGVPARFGGSGSGTSYSLTISSMEAEDAATYYCQQWSSNPLTFGAGTKLELKRGGGGSGGGGSGGGGSQVQLQQSGPELVKPGASVRISCKASGYTFTSYYIHWVKQRPGQGLEWIGWIYPGNLNTKYNEKFKGKATLTADKSSSTAYMQLSSLTSEDSAVYFCARYDWYFDVWGAGTTVTVSS
- Fold Change (Luc activity, target cell line over control cell line) [1]: 4.35 fold

B2: hu-mROO5-1 scFv (CD19), NLuc fusion (scFv)
chain: DIQMTQSPSSLSASVGDRVTITCKASDHINNWLAWYQQKPGQAPKLLIYGATTLETGVPSRFSGSGSGTDYTLTISSLQPEDFATYYCQQSWNTPWTFGQGTKLEIKRGGGGSGGGGSGGGGSQVQLQQPGAELVKPGASVKMSCKASGYAFSSYWINWMKQKPGQGLEWIGQIYPGDGDTNYNGKFKGRATLTADTSSSTAYMQLSSLTSEDSAVYFCARSITTVVGCAMDYWGQGTSVTVSS
- Fold Change (Luc activity, target cell line over control cell line) [2]: 933 fold

B3: AT264-S30G vHH (CD33), NLuc fusion (VHH)
VHH: EVQLVESGGGSVQAGGSLRLSCAASGYTYGINCMGWFRQAPGKEREGVAVISTGGGRTDYRDSVKGRFTISQDNAKNTVYLQMNSLKPEDTAMYYCAGKTTYPGYGCGLGRSAYNYWGQGTQVTVSS
- Fold Change (Luc activity, target cell line over control cell line) [3]: 28 fold

B4: hu-E59D-US3 vHH (BCMA), NLuc fusion (VHH)
VHH: EVQLVESGGGLVQPGGSLRLSCAASGRTFTMGWFRQAPGKGREFVAAISLSPTLAYYADSVKGRFTISRDNSKNTVVLQMNSLRAEDTAVYYCAADRKSVMSIRPDYWGQGTQVTVSS
- Fold Change (Luc activity, target cell line over control cell line) [4]: 2 fold

B5: DLL3-USC5 vHH (DLL3), NLuc fusion (VHH)
VHH: QVQLVESGGGVVQPGGSLRLSCAASFSGYGVSTMAWFRQAPGKGLEGVAAITVGSGNTYYADSVKGRFTISRDNSKNTVYLQMNSLRAEDTAMYYCAVGWLSGGSWHVPGRYNYWGQGTLVTVSS
- Fold Change (Luc activity, target cell line over control cell line) [5]: 1.7 fold

B6: STEAP2-RGN-1162-USC1 scFv (STEAP2), NLuc fusion (scFv)
chain: QVQLQQSGPGLVKPSQTLSLTCAISGDSVSSNRAAWNWIRQSPSRGLQWLGRTYYRSKWYNDYAVSLRSRITINPVTSKNQVALHMNSVTPEDTAVYYCARAGIVVVPGPETFYYYDHGLDVWGQGTTVTVSSGGGGSGGGGSGGGGSDIQMTQSPSSLSASVGDRVTITCRASQSIRNYLNWYQQKPGKAPELLIHAASSLQSGVPSRFSGSGSGTDFTLTISSLQPEDFASYYCQQSYSAPPITFGQGTRLEIK
- Fold Change (Luc activity, target cell line over control cell line) [6]: 27.4 fold

B7: IL23R-SANG-11 scFv (IL23R), NLuc fusion (scFv)
chain: DIQMTQSPSSLSASVGDRVTITCQASENIYSFLAWYQQKPGKAPKLLIYSASKLAAGVPSRFSGSGSGTDFTLTISSLQPEDFATYYCQQTNRYSNPDIYNVFGQGTKLTVLGGGGGSGGGGSGGGGSEVQLVESGGGLVQPGGSLRLSCAASGIDFNSNYYMCWVRQAPGKGLEWIGCIYVGSHVNTYYANWAKGRFTISRDNSKNTVYLQMNSLRAEDTAVYYCATSGSSVLYFKFWGQGTLVTVSS
- Fold Change (Luc activity, target cell line over control cell line) [7]: 2.37 fold

B8: E59D-USC1 vHH (BCMA), NLuc fusion (VHH)
VHH: B4 VHH with E1Q, F34Y, R42L, A46S, V90L, Q113L
- Fold Change (Luc activity, target cell line over control cell line) [8]: 2.57 fold

B9: huE59D-AT2 vHH (BCMA), NLuc fusion (VHH)
VHH: B4 VHH with F34Y, G41E, V90L, Q113L
- Fold Change (Luc activity, target cell line over control cell line) [8]: 2.99 fold

B10: huCD20-AT1 vHH (CD20), NLuc fusion (VHH)
VHH: EVQLLESGGGLVQPGGSLRLSCAASGRTFSMGWYRQAPGKGLEFVSAITYSGGSPYYADSVKGRFTISRDNSKNTVYLQMNSLRAEDTAVYYCAANPTYGSDWNAENWGQGTLVTVSS
- Fold Change (Luc activity, target cell line over control cell line) [9]: 15.6 fold

B11: AT2-K65R vHH (MSLN), NLuc fusion (VHH)
VHH: QVQLVESGGGVVQPGGSLRLSCAASGLSFSTYTVAWFRQAPGKGLEGVAAIPYTSQHMVYTDSVRGRFTISRDNSKNTLYLQMNSLRAEDTAVYYCATDRRPGTSMLAINGYNRWGQGTTVTVSS
- Fold Change (Luc activity, target cell line over control cell line) [10]: 11.5 fold
